This is an account of results in paper PMC7156110, “The MAPK substrate MASS proteins regulate stomatal development in Arabidopsis” (PLoS Genetics, 2020).

For the assay, the target named is T1, MBP-YDA (recombinant YODA) (Arabidopsis thaliana, UniProt Q9CAD5 1-883).
T1 construct: MAPKK kinase YODA (YDA, AT1G63700), Arabidopsis thaliana; also called MBP-tagged YDA; source: E. coli BL21 (DE3), purified (Amylose Resin)
T1 sequence (looked up): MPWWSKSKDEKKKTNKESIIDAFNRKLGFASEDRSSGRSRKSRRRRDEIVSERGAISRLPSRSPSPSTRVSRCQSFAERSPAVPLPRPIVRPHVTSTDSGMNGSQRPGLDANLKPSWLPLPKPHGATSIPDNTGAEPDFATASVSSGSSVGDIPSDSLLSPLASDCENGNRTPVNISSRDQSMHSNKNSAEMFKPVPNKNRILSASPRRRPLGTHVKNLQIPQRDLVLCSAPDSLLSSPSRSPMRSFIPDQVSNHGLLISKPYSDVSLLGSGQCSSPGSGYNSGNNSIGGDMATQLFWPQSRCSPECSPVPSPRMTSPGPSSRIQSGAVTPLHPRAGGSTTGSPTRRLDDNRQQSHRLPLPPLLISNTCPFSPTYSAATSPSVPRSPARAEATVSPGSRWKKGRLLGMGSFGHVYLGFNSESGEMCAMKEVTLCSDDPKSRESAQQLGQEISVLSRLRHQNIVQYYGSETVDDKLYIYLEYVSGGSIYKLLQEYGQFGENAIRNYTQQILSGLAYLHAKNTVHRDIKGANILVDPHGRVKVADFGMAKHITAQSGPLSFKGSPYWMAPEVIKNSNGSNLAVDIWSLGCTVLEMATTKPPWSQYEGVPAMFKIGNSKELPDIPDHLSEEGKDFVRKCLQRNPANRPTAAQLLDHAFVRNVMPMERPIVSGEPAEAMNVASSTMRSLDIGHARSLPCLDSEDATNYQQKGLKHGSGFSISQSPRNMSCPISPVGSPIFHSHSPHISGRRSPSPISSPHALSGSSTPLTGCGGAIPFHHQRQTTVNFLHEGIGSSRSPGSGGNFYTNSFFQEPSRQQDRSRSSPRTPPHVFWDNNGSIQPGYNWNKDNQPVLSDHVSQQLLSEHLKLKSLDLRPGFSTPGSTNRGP
The experiment in a line: pull-down; MBP-YDA held on Amylose Resin, incubated with His-MASS2 at 4°C for 2 h; washing buffer 50 mM Tris-HCl pH 7.5, 10 mM MgCl2, 150 mM NaCl, 1 mM DTT; blots with anti-His and anti-MBP. The following applies: both partners purified.

B1: His-MASS2.3 (MASS2 splicing variant 3, recombinant) (natural protein, Arabidopsis thaliana, UniProt Q9XI29 1-148, looked up)
chain: MEGLQRSTISFRRQGSSGIVFDDRLIAELNKSGNNEQKDESQRDEQPKPMSESSEQVKPIDEKDKLRPIKTGGGAPGGIERSRSNGGGAQRHHRTTGRVSPAVDPPSPRISSCGCCSAFGKNPPGKKVNPRKRPPKRRSRRRIVTKKR
notes: source: E. coli BL21 (DE3), purified (Ni-NTA agarose)
As to B1, the binding result is “binds”.
